One series has as its target T1, EcRecG-WD QPW (Escherichia coli MG1655, UniProt P24230 59-135, F99Q;S100P;A101W).
T1 sequence: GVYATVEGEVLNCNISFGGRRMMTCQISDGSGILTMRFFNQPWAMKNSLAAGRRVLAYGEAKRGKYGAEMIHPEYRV
Briefly: EMSA; 100 nM HJ; significantly increased vs EcRecG-WD WT; 5 mM EDTA; 50 mM Tris-HCl pH 8.0, 5 mM EDTA, 1 mM DTT, 100 ug/ml BSA, 6% glycerol, on ice 15 min; 100 nM HJ; 6% polyacrylamide gel at room temperature. Conditions: protein: recombinant; tags: MBP (N-terminal fusion, pMAL-c2x); four-way junction of 4 strands, 1 copy each. (In EMSA bound probe runs differently from free probe, usually more slowly.)

The target of a further series is T2, DrRecG-WD WT (Deinococcus radiodurans R1, UniProt Q9RT50 158-235).
T2 sequence: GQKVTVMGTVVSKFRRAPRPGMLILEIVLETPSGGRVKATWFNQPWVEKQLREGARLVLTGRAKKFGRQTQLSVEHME
Briefly: EMSA; 100 nM HJ; near saturation at 160 nM protein; 5 mM EDTA; 50 mM Tris-HCl pH 8.0, 5 mM EDTA, 1 mM DTT, 100 ug/ml BSA, 6% glycerol, on ice 15 min; 100 nM HJ; 6% polyacrylamide gel at room temperature. Conditions: protein: recombinant; tags: MBP (N-terminal fusion, pMAL-c2x); four-way junction of 4 strands, 1 copy each.

B1: Holliday junction (oligos 1-4) (structured_DNA)
DNA 1: GTCGGATCCTCTAGACAGCTCCATGATCACTGGCACTGGTAGAATTCGGC
DNA 2: CAACGTCATAGACGATTACATTGCTACATGGAGCTGTCTAGAGGATCCGA
DNA 3: TGCCGAATTCTACCAGTGCCAGTGATGGACATCTTTGCCACGTTGACCC
DNA 4: TGGGTCAACGTGGGCAAGATGTCCTAGCAATGTAATCGTCTATGACGT
As for B1, the binding result in the series with EcRecG-WD QPW and in the series with DrRecG-WD WT was “binds” throughout.
